Data taken from publication PMC10397247.
Each block holds one binder with its values, some of them ahead of it.

Key:
Test in all cases: two-hybrid library CCNG1;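 also: natural log of median RNA to DNA barcode read ratio; higher means stronger binding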
[1] = target: T1, P6A
T1 chain: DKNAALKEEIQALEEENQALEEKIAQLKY

[2] = target: T2, P4A
T2 chain: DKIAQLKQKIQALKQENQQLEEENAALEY

[3] = target: T3, P8A
T3 chain: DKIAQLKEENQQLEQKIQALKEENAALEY

[4] = target: T4, P2A
T4 chain: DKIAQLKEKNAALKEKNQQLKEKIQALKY

[5] = target: T5, P3A
T5 chain: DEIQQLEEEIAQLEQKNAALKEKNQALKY

[6] = target: T6, P5A
T6 chain: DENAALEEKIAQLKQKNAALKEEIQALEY

[7] = target: T7, P9A
T7 chain: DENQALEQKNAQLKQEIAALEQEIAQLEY

[8] = target: T8, P7A
T8 chain: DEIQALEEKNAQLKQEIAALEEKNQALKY

[9] = target: T9, 4H2473-bH
T9 chain: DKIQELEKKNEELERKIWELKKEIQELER

[10] = target: T10, 4H2223-bH
T10 chain: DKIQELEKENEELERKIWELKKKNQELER

[11] = target: T11, 4H2503-bH
T11 chain: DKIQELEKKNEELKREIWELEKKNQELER

[12] = target: T12, 4H2692-bH
T12 chain: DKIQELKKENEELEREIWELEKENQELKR

[13] = target: T13, 4H2717-bH
T13 chain: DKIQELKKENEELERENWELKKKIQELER

[14] = target: T14, 4H348-bH
T14 chain: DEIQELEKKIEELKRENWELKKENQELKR

[15] = target: T15, 4H2438-bH
T15 chain: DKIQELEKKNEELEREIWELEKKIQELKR

[16] = target: T16, 4H40-bH
T16 chain: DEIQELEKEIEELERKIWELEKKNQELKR

[17] = target: T17, 4H741-bH
T17 chain: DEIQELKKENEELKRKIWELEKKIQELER

[18] = target: T18, 4H3277-bH
T18 chain: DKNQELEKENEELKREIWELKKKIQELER

[19] = target: T19, 4H319-bH
T19 chain: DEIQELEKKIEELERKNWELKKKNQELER

[20] = target: T20, 4H2839-bH
T20 chain: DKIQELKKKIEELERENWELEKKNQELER

[21] = target: T21, 4H2588-bH
T21 chain: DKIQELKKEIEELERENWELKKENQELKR

[22] = target: T22, 4H2915-bH
T22 chain: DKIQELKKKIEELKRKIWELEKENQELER

[23] = target: T23, 4H3057-bH
T23 chain: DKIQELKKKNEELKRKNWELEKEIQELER

[24] = target: T24, 4H492-bH
T24 chain: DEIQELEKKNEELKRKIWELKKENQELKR

[25] = target: T25, 4H477-bH
T25 chain: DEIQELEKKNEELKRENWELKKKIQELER

interaction score [1]: -0.59 | interaction score [2]: -1.63 | interaction score [3]: -0.85 | interaction score [4]: -1.07 | interaction score [5]: -1.21 | interaction score [6]: -1.27 | interaction score [7]: -0.481 | interaction score [8]: -2.38
B1: P2A (peptide)
chain: DKIAQLKEKNAALKEKNQQLKEKIQALKY

interaction score [9]: 0.446 | interaction score [10]: -0.882 | interaction score [11]: 1.19 | interaction score [12]: 0.736 | interaction score [13]: 0.113 | interaction score [14]: -1.35 | interaction score [15]: -0.678 | interaction score [16]: -1.6 | interaction score [17]: 0.0741 | interaction score [18]: 0.0226 | interaction score [19]: -0.374 | interaction score [20]: 0.582 | interaction score [21]: 0.461 | interaction score [22]: 0.816 | interaction score [23]: 0.455 | interaction score [24]: -0.847 | interaction score [25]: -0.907
B2: 4H2223-bH (peptide)
chain: DKIQELEKENEELERKIWELKKKNQELER
